Measurements from patent publication US20060206948A1 (UNIVERSITY OF PITTSBURGH OF THE COMMONWEALTH SYSTEM OF …, published 2006).
Blank lines part the entries; values can stand above or below the molecule they belong to.

Experiments:
[1] = biological target: long-form human leptin receptor, OB-Rb (human) (UniProt P48357); assay: binding of labelled leptin to HEK293 cells stably transfected with human OB-Rb
[2] = biological target: T1, rat C-reactive protein (rat, UniProt P48199 20-230); assay: immunoprecipitation with anti-mouse leptin, western blot with anti-CRP
T1 construct: also called rat CRP; rat SLIP-1
T1 sequence (looked up): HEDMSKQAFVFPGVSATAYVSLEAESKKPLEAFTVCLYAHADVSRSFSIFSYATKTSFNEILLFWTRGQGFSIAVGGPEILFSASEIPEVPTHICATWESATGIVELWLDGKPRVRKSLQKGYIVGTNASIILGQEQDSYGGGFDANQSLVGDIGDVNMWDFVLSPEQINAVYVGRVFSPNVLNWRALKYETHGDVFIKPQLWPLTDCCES

[3] = biological target: T2, mouse leptin (mouse), P41160; assay: human CRP against mouse leptin (~2 ng/ml) binding to OB-Rb HEK293 cells (FIG. 3G); conditions: remark: other sources report otherwise
T2 chain: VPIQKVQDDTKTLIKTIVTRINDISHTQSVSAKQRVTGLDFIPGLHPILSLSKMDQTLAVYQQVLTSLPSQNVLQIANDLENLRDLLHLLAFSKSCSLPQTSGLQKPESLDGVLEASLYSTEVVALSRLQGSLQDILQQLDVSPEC

[4] = biological target: T3, human leptin (SEQ ID NO:4) (human, UniProt P41159 22-167); assay: derived from the IC50 of CRP against 125I-human leptin binding to OB-Rb HEK293 cells
T3 construct: Recombinant human leptin; also called recombinant human leptin
Method: (§1) 4. […] After 10 minute incubation at room temperature, the reaction was stopped with 100 μl 0.1% trifluoroacetic acid (TFA). The reaction mixture was immediately purified by reverse-phase HPLC. The separation employed a 5 minute isocratic step at 20% eluant B in A, followed by two consecutive 30 minute linear gradients from 20 to 50%, then from 50 to 60% eluant B in A (where eluant A is water containing 0. 1% TFA and eluant B is acetonitrile containing 0.1% TFA) at a flow rate of 1.5 ml/min. […] The incubation would last for 3 hours at 4° C. before the media was aspirated and the cells were dissolved in 0.1N NaOH for scintillation counting.

[5] = biological target: T3, human leptin (SEQ ID NO:4); assay: human CRP pre-incubated with 125I-human leptin (~2 ng/ml); inhibition of leptin binding to OB-Rb HEK293 cells, scintillation counting
Method: as §1

long-form human leptin receptor, OB-Rb (human), sequence (P48357 22-1165): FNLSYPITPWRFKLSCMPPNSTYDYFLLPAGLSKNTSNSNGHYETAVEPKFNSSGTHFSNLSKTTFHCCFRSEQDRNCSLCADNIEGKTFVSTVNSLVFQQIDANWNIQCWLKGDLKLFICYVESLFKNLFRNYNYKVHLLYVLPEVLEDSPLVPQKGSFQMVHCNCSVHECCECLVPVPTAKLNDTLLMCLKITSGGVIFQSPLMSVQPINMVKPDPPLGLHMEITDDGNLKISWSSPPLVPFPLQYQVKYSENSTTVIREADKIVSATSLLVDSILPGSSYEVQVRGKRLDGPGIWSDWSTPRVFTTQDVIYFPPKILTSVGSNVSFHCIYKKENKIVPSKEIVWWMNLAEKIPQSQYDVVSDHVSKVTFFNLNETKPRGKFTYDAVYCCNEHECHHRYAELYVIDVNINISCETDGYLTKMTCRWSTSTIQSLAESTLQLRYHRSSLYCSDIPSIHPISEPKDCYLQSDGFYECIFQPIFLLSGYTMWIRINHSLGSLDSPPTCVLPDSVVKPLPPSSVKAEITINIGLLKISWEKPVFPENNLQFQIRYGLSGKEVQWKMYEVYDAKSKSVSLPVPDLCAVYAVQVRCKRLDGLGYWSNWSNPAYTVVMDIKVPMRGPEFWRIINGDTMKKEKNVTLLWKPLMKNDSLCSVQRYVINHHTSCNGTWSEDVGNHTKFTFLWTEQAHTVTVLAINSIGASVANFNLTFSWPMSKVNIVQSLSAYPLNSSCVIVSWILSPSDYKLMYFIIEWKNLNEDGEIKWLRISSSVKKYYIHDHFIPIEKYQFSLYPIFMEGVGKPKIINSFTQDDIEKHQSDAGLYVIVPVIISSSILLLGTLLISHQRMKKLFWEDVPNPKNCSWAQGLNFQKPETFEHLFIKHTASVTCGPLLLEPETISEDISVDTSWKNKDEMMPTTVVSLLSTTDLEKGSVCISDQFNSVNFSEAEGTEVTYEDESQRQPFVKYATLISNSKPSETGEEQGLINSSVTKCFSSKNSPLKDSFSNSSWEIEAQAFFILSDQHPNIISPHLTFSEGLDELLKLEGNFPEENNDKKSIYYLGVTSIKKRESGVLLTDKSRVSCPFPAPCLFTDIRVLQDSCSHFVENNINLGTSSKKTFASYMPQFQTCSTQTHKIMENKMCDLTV

Kd [1]: 1 nM
Molecule: human leptin (SEQ ID NO:4) (from UniProt P41159 22-167) (ligand)

binding result [2]: binds
B1: mouse leptin (ligand, UniProt P41160 22-167, looked up)
chain: VPIQKVQDDTKTLIKTIVTRINDISHTQSVSAKQRVTGLDFIPGLHPILSLSKMDQTLAVYQQVLTSLPSQNVLQIANDLENLRDLLHLLAFSKSCSLPQTSGLQKPESLDGVLEASLYSTEVVALSRLQGSLQDILQQLDVSPEC
notes: Recombinant; also called recombinant mouse leptin; murine leptin

IC50 [3]: > 64 µg/mL | molecular ratio CRP:leptin at the IC50 [4]: 5.8 CRP:leptin (molar, CRP pentamer) | IC50 [5]: ~0.08 µg/mL
B2: human C-reactive protein (other, UniProt P02741 19-224, looked up)
chain: QTDMSRKAFVFPKESDTSYVSLKAPLTKPLKAFTVCLHFYTELSSTRGYSIFSYATKRQDNEILIFWSKDIGYSFTVGGSEILFEVPEVTVAPVHICTSWESASGIVEFWVDGKPRVRKSLKKGYTVGAEASIILGQEQDSFGGNFEGSQSLVGDIGNVNMWDFVLSPDEINTIYLGGPFSPNVLNWRALKYEVQGEVFTKPQLWP
notes: Human SLIP-1 from the leptin column was identified as human CRP; also called human CRP; CRP
